Measurements published in paper PMC11172107.

Target: T1, ArgR-His6 (Vibrio fluvialis 85003) (UniProt A0AAX2LJS0)
T1 sequence: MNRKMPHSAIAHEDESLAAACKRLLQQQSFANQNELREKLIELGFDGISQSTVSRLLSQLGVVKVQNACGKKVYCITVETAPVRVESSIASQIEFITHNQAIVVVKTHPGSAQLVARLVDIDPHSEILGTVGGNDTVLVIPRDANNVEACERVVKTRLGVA
Assay: EMSA
Details: EMSA: 20 mM Tris/HCl pH 7.6, 50 mM KCl, 1 mM EDTA, 5% glycerol, 200 ng BSA, 500 ng dI-dC, 15 ng probe, 30 C 20 min; footprinting: 5.40 uM ArgR-His6, 40 uL …

## CCGCAGGCTCTTTAGAATTTCTTTAACGATGAAGTGAAATTCACTTTATCACCATGAATAACAATAAAAGTTTTCACCATATTTATTACAAGTCCTAAGCTTTATTCCACGAAATACGTTGCCATATTGAATAGTATTGCAATAAACGTTTTCTAAATGAGTGAATTGAGGTGTGGG (double strand) [arcD2 probe]
  binding: binds
